# Where two headings read alike, the source gives them in different places.
# Key:
# [1] = biological target: Human c-MET, His Tag (Sino Biological, Cat. No. 10692-H08H) (human) (UniProt P08581); assay: ELISA, coated human c-MET His Tag, 4-parameter fit
# [2] = biological target: human c-MET on Hs746T human gastric cancer cells (human) (UniProt P08581); assay: cell-based or functional assay
# [3] = biological target: human c-MET on Hs746T human gastric cancer cells (human) (UniProt P08581); assay: cell-based or functional assay; remark: listed apart in the source
# [4] = biological target: human c-MET on Hs746T human gastric cancer cells (human) (UniProt P08581); assay: flow cytometry on Hs746T cells, PE secondary antibody, 4-parameter fit
# [5] = biological target: human c-MET on Hs746T human gastric cancer cells (human) (UniProt P08581); assay: flow cytometry on Hs746T cells, 4-parameter fit
# [6] = biological target: human c-MET antigen (human) (UniProt P08581); assay: ELISA OD450 of clone supernatant divided by PBS blank
# [7] = biological target: human c-MET antigen (human) (UniProt P08581); assay: ELISA, E. coli lysate supernatant of clone on human c-MET antigen
molecule,measurement,setting,value
MHB07-PC (Telisotuzumab) (antibody),Bottom,[1],0.0407 OD450
same,EC50,[1],0.00925 µg/mL
same,Top,[1],2.02 OD450
same,"Fab-ZAP endocytosis-mediated cell killing, Bottom (killing rate %)",[2],15.4%
same,"Fab-ZAP endocytosis-mediated cell killing, EC50",[2],0.0128 nM
same,"Fab-ZAP endocytosis-mediated cell killing, Top (killing rate %)",[2],98.3%
same,"Fab-ZAP endocytosis-mediated cell killing, Bottom (killing rate %)",[3],49.7%
same,"Fab-ZAP endocytosis-mediated cell killing, EC50",[3],0.0199 nM
same,"Fab-ZAP endocytosis-mediated cell killing, Top (killing rate %)",[3],83.2%
same,Bottom,[4],18000 MFI
same,EC50,[4],0.31 µg/mL
same,Top,[4],647000 MFI
same,Bottom,[5],610 MFI
same,EC50,[5],0.788 µg/mL
same,Top,[5],8340 MFI
Isotype (antibody),Bottom,[1],0.0582 OD450
same,EC50,[1],4.09 µg/mL
same,Top,[1],0.0795 OD450
same,Bottom,[5],-124 MFI
same,EC50,[5],9.74 µg/mL
same,Top,[5],722 MFI
MH172-HGF R-7-2-92 (VHH) VHH: QLQLVESGGGLVQAGGSLRLSCAASGRITNTYVMGWFRQAPGKERELQAAITWTVGSTYYVDSVKGRFTISRDNAKNTLYLQMNSLKPEDTAVYYCAASRFSAWPPRGTLGEWNSWGQGTQVTVSS,Unique seq/PBS (fold over PBS),[6],42.3
same,OD450,[7],3.26 OD450
